# Measurements reported in PMC2845550, “Heterologous expression of leader-less pga gene in Pichia pastoris: intracellular production of prokaryotic enzyme” (BMC Biotechnology, 2010).
# B1: PGAEc (Escherichia coli) (protein)
# chain 1: EQSSSEIKIVRDEYGMPHIYANDTWHLFYGYGYVVAQDRLFQMEMARRSTQGTVAEVLGKDFVKFDKDIRRNYWPDAIRAQIAALSPEDMSILQGYADGMNAWIDKVNTNPETLLPKQFNTFGFTPKRWEPFDVAMIFVGTMANRFSDSTSEIDNLALLTALKDKYGVSQGMAVFNQLKWLVNPSAPTTIAVQESNYPLKFNQQNSQTA
# chain 2: SNMWVIGKSKAQDAKAIMVNGPQFGWYAPAYTYGIGLHGAGYDVTGNTPFAYPGLVFGHNGVISWGSTAGFGDDVDIFAERLSAEKPGYYLHNGKWVKMLSREETITVKNGQAETFTVWRTVHGNILQTDQTTQTAYAKSRAWDGKEVASLLAWTHQMKAKNWQEWTQQAAKQALTINWYYADVNGNIGYVHTGAYPDRQSGHDPRLPVPGTGKWDWKGLLPFEMNPKVYNPQSGYIANWNNSPQKDYPASDLFAFLWGGADRVTEIDRLLEQKPRLTADQAWDVIRQTSRQDLNLRLFLPTLQAATSGLTQSDPRRQLVETLTRWDGINLLNDDGKTWQQPGSAILNVWLTSMLKRTVVAAVPMPFDKWYSASGYETTQDGPTGSLNISVGAKILYEAVQGDKSPIPQAVDLFAGKPQQEVVLAALEDTWETLSKRYGNNVSNWKTPAMALTFRANNFFGVPQAAAEETRHQAEYQNRGTENDMIVFSPTTSDRPVLAWDVVAPGQSGFIAPDGTVDKHYEDQLKMYENFGRKSLWLTKQDVEAHKESQEVLHVQR
# notes: mature periplasmic heterodimer cut from 846-residue preproprotein; homologous expression in E. coli RE3(pKA18), untagged
# How the values were obtained:
# purified protein [1] = substrate: O=C(Cc1ccccc1)Nc1ccc([N+](=O)[O-])c(C(=O)O)c1; test: purified protein; type: biochemical, Escherichia coli; details: 50 mM phosphate buffer, pH 8, 37 °C, substrate 7-2000 μM
# purified protein [2] = substrate: CC1(C)S[C@@H]2[C@H](NC(=O)Cc3ccccc3)C(=O)N2[C@H]1C(=O)O; test: purified protein; type: biochemical, Escherichia coli; details: 37 °C, substrate 5-100 μM
protein,measurement,setting,value
B1,Km,purified protein [1],28 µM
same,Vmax,purified protein [1],15000 µM/min
same,kcat,purified protein [1],1.6 s⁻¹
same,Km,purified protein [2],34 µM
same,kcat,purified protein [2],13.6 s⁻¹
